Reference: patent US20250388664A1 (BIOARCTIC, published 2025)

How the values were obtained:
[1] = biological target: T1, h/m helical domain chimera (SEQ ID NO:113) (human/mouse chimera, UniProt Q62351 90-763 (mouse entry)); experiment: indirect ELISA: plate coated with 1 µg/ml h/m helical domain chimera, mouse IgG titrated, anti-mouse IgG-HRP; x axis printed as 'TfR (ng/ml)'
T1 construct: also called chimeric TfR1 consisting of human helical domain grafted on mouse TfR1 ectodomain
T1 chain: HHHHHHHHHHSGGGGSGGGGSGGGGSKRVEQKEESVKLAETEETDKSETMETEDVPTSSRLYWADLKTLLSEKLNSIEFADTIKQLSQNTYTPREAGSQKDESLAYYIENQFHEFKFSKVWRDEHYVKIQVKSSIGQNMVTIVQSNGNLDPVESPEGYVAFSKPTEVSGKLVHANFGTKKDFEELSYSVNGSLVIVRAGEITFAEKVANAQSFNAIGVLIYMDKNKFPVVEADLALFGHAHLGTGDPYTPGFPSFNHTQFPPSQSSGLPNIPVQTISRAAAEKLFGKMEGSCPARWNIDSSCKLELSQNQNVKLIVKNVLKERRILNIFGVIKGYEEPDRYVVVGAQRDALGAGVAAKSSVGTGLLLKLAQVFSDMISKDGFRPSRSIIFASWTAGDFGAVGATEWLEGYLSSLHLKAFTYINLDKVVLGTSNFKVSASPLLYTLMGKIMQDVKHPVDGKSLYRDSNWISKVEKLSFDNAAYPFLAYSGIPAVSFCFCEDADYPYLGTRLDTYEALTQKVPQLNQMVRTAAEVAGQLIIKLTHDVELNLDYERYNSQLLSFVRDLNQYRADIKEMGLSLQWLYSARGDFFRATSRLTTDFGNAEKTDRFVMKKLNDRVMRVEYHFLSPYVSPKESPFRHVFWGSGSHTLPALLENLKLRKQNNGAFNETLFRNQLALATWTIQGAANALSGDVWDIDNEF
Experimental: (§1) In the ELISA experiment, human, mouse or three different chimeric TfR1 receptors were used to coat ELISA plates (FIGS. 30A-30E). The ELISA protocol was slightly modified as follows from the indirect ELISA described in Example 15. […] The coated plates were then blocked. Dilution series of mouse IgG of the analyzed antibodies were prepared in PBS and incubated on the ELISA plates. Unbound antibodies were then washed off before incubating wells with a HRP-conjugated secondary, anti-mouse-IgG for 1 h. Plates were then washed again before addition of HRP substrate TMB for development and detection of antibody binding to the wells. TMB development was stopped by adding 0.5 M H₂SO₄ to the wells and ELISA responses measured as the OD at 450 nm in an ELISA plate reader.

[2] = biological target: T2, His10-hTfR1 (SEQ ID NO:109) (human, UniProt P02786 90-760); experiment: ELISA, hybridoma supernatant
T2 construct: Recombinant, HEK293; also called His-tagged hTfR1; His-tagged hTfR

[3] = biological target: T3, ectodomain of human TfR1 (His10-hTfR1; SEQ ID NO:110) (human, UniProt P02786 89-760); experiment: indirect ELISA: plate coated with 1 µg/ml hTfR1 ectodomain, mouse IgG titrated, anti-mouse IgG-HRP; x axis printed as 'TfR (ng/ml)'
T3 construct: also called ectodomain of hTfR1
Experimental: as §1

[4] = biological target: T4, h/m apical domain chimera (SEQ ID NO:112) (human/mouse chimera); experiment: indirect ELISA: plate coated with 1 µg/ml h/m apical domain chimera, mouse IgG titrated, anti-mouse IgG-HRP; x axis printed as 'TfR (ng/ml)'
T4 construct: also called chimeric TfR1 consisting of human apical domain grafted on mouse TfR1 ectodomain
T4 chain: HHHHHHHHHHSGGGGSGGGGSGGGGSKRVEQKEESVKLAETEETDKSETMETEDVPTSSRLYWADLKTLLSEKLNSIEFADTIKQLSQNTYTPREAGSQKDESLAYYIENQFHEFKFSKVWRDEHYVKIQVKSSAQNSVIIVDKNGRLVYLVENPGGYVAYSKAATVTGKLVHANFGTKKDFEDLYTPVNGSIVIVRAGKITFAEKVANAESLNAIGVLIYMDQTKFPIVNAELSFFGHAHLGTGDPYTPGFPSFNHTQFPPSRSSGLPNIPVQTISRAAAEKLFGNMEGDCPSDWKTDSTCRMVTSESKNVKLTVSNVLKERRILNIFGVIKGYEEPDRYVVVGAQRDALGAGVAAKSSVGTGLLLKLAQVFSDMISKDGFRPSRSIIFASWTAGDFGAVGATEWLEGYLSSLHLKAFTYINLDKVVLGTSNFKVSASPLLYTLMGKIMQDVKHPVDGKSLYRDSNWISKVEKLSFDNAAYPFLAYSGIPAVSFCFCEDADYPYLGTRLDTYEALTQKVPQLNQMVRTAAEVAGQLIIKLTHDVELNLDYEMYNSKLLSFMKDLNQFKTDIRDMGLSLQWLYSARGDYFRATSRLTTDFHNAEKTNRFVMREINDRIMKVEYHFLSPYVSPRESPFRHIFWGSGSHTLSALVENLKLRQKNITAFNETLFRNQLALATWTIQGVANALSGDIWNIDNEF
Experimental: Plasma samples serially diluted from a starting dilution of 1/450 or hybridoma supernatants diluted 1/2 were added to the plates (50 μl/well; dilution buffer: PBS with 0.1% BSA and 0.05% TWEEN®-20) and incubated for 2 h at room temperature and then the plates were washed four times. […] After another wash (as above), 50 μl/well TMB substrate (K-Blue® Aqueous, Neogen) was added, and the reaction was stopped after 10-15 min with 50 μl/well of 0.5 M H₂SO₄. The optical density at 450 nm was read using a plate reader (Tecan). The endpoint titers were defined as the dilution above the average of the blank wells (background) plus 3 standard deviations of the blank wells.
as §1

[5] = biological target: T5, hTfR1 (recombinant, construct not specified) (human, UniProt P02786 89-760, limits assumed); experiment: BLI: IgG captured from hybridoma supernatant on anti-mouse capture sensors, 250 nM hTfR1 in solution, 120 s association, 90 s dissociation
T5 construct: also called biotinylated hTfR1
Experimental: Next, sensors with immobilized IgGs were briefly washed for 10 s before incubation in running buffer to establish a baseline signal. […] All proteins were diluted in running buffer. Target dissociation was measured by incubating the biosensors in running buffer for 90 s.

AβpE3-42 protofibrils [6] = biological target: T6, AβpE3-42 protofibrils (UniProt P05067 674-713, pyroglutamate at position 3 (N-terminal residue)); experiment: SPR, protofibrils immobilised, antibody injected, 1:1 fit, apparent
T6 construct: range 3-42 (Aβ numbering); Soluble aggregates made from AβpE3-42 peptide, purified in the void peak of SEC; also called AβpE3-42 PF
T6 sequence (P05067 674-713): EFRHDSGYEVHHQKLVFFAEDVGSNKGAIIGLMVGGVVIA
Experimental: (§2) Single cycle kinetics was also used to measure binding of the antibodies to AβpE3-42 protofibrils. […] For binding to AβpE3-42 protofibrils, the antibodies were injected over the chip using a 3-fold dilution series in five steps starting at 700 nM, using 2 min injection of every antibody concentration and a 60 min dissociation time. Regeneration of the surface between cycles was done by injecting 30 μl 10 mM glycine-HCl pH 1.7. The binding data was fitted to a 1:1 interaction model.
(§3) In all SPR experiments, 1×HBS-EP+ (Cytiva, cat. no. BR100669) was used as running buffer and to dilute antibodies and target antigens. Experiments were performed at 25° C.

AβpE3-40 monomer [7] = biological target: T7, AβpE3-40 monomer (UniProt P05067 674-711, pyroglutamate at position 3 (N-terminal residue)); experiment: SPR, antibody immobilised, monomer injected, 1:1 fit
T7 construct: range 3-40 (Aβ numbering); Synthetic peptide (Bachem/Anaspec), verified monomeric by SEC; also called monomeric AβpE3-40
Experimental: (§4) Single cycle kinetics with the antibodies immobilized on a CM5 chip was used to measure the binding of the antibodies to the different monomers (AβpE3-40, AβpE11-28, Aβ1-28, Aβ2-28, Aβ3-28 and Aβ4-28). For the measurements, 5 μg/ml of analyte antibody was immobilized on the chip. […] Regeneration of the surface between cycles was done by injecting 30 μl 3 M MgCl₂. The binding data was fitted to a 1:1 interaction model.
as §3

Aβ4-28 monomer = biological target: T8, Aβ4-28 monomer (UniProt P05067 675-699); experiment: as above
T8 construct: range 4-28 (Aβ numbering)
T8 sequence (P05067 675-699): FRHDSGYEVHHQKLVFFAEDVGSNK
Experimental: as §4, §3

Aβ1-42 monomer = biological target: T9, Aβ1-42 monomer (UniProt P05067 672-713); experiment: ELISA: Aβ monomer captured on a polyclonal anti-Aβ42 coat, hybridoma supernatant diluted 1/243, anti-mouse IgG-HRP
T9 construct: range 1-42 (Aβ numbering)
T9 sequence (P05067 672-713): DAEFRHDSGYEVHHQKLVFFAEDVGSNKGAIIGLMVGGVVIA

Aβ2-42 monomer = biological target: T10, Aβ2-42 monomer (UniProt P05067 673-713); experiment: as above
T10 construct: range 2-42 (Aβ numbering)
T10 sequence (P05067 673-713): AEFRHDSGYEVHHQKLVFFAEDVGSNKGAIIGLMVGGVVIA

AβpE3-42 protofibrils [8] = biological target: T6, AβpE3-42 protofibrils; experiment: inhibition ELISA, antigen titrated in solution, AβpE3-40 coat
Experimental: (§5) For binding to Aβ1-40 and AβpE11-40, the positive control 4G8 (Covance #SIG-39320, epitope: amino acids 17-24 of Aβ) was included. The recombinant antibodies were incubated at a fixed concentration (0.05 μg/ml) with titrating concentrations of the different Aβ antigens. After incubation for 45 min at 900 rpm to reach equilibrium, the antibody-Aβ samples were added to a blocked and washed ELISA plate with an AβpE3-40 coat (0.5 μM). The samples were incubated on the plate for 25 min without shaking followed by washing, incubation with detection antibody, another washing step and finally incubation with alkaline phosphatase substrate.

AβpE3-40 monomer [9] = biological target: T7, AβpE3-40 monomer; experiment: as above
Experimental: as §5

Aβ1-40 monomer = biological target: T11, Aβ1-40 monomer (UniProt P05067 672-711); experiment: as above
T11 construct: range 1-40 (Aβ numbering)
Experimental: as §5

AβpE11-40 monomer = biological target: T12, AβpE11-40 monomer (UniProt P05067 682-711, pyroglutamate at position 11 (N-terminal residue)); experiment: as above
T12 construct: range 11-40 (Aβ numbering)
T12 peptide (looked up): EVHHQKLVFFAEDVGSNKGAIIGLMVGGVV
Experimental: as §5

Aβ1-28 monomer = biological target: T13, Aβ1-28 monomer (UniProt P05067 672-699); experiment: SPR, antibody immobilised
T13 construct: range 1-28 (Aβ numbering)
T13 sequence (P05067 672-699): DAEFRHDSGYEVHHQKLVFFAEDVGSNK
Experimental: Affinity and specificity evaluation and KD determination by surface plasmon resonance: Binding interactions between antigens and antibodies were evaluated by SPR using a Biacore 8K instrument (Cytiva) according to standard procedures. […] Additionally, the specificity towards different N-truncated forms of Aβ (Aβ2-28, Aβ3-28, Aβ4-28 and AβpE11-28 monomers) was evaluated.
as §4, §3

Aβ3-28 monomer = biological target: T14, Aβ3-28 monomer (UniProt P05067 674-699); experiment: SPR, antibody immobilised
T14 construct: range 3-28 (Aβ numbering)
T14 sequence (P05067 674-699): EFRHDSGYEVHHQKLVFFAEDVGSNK
Experimental: as §4, §3

AβpE11-28 monomer = biological target: T15, AβpE11-28 monomer (UniProt P05067 682-699, pyroglutamate at position 11 (N-terminal residue)); experiment: SPR, antibody immobilised
T15 construct: range 11-28 (Aβ numbering)
T15 peptide (looked up): EVHHQKLVFFAEDVGSNK
Experimental: as §4, §3

Aβ2-28 monomer = biological target: T16, Aβ2-28 monomer (UniProt P05067 673-699); experiment: SPR, antibody immobilised
T16 construct: range 2-28 (Aβ numbering)
T16 sequence (P05067 673-699): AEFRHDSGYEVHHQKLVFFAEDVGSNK
Experimental: as §4, §3

AβpE3-42 protofibrils [10] = biological target: T6, AβpE3-42 protofibrils; experiment: SPR, protofibrils immobilised, antibody injected, 1:1 fit, apparent; binding to AβpE3-42 protofibrils (not monomer); KD in pM
Experimental: as §2, §3

B1: 37D10 (antibody, V domains shown)
VH: QVQLQQSGAELVRPGTSVKISCKASGYAFTNYWLGWVKQRPGHGLEWIGDIFPGSDNTYYNEKFKGKATLTADKSSSTAYMQLSSLASEDSAVYFCARSGNFYAMDYWGQGTSVTVSS
VL: ENVLTQSPAIMSASPGEKVTMTCSASSSVNYMNWYQQKSSTFPKLWIYDTSKLASGVPGRFSGSGSGKFYSLTISSMEAEDVATYYCFQGSGYPFTFGSGTKLEIK
notes: also called mouse antibody 37D10; clone 37D10
binding result [1]: no binding (tested: about 600 ng/ml) | binding result [2]: binds | binding result [3]: binds | binding result [4]: no binding (tested: about 600 ng/ml) | binding result [5]: binds

B2: Pyr7.1 (antibody, V domains shown)
VH: KVQLQQSGPELVKPGTSIKMSCKTSGYSFTGYTLNWVKQSPGKNPEWIGLINPYNGITTYNPKFMGKATLTVDKSSSTAYMELLSLTSEDSAVYYCSREGNWEGVYWGQGTLVTVSA
VL: not shown
notes: Murine anti-AβpE3 antibody; also called recombinant antibody Pyr7.1; hybridoma clone Pyr7.1
koff (AβpE3-42 protofibrils [6]): 2.29e-06 s⁻¹ | kon (AβpE3-42 protofibrils [6]): 78200 M⁻¹ s⁻¹ | Kd (AβpE3-40 monomer [7]): 2.3 nM | koff (AβpE3-40 monomer [7]): 0.000122 s⁻¹ | kon (AβpE3-40 monomer [7]): 53200 M⁻¹ s⁻¹ | Kd (Aβ4-28 monomer): 8310 nM | koff (Aβ4-28 monomer): 0.454 s⁻¹ | kon (Aβ4-28 monomer): 102000 M⁻¹ s⁻¹ | binding result (Aβ1-42 monomer): no binding | binding result (Aβ2-42 monomer): no binding | IC50 (AβpE3-42 protofibrils [8]): 12.8 nM | IC50 (AβpE3-40 monomer [9]): 2.85 nM | IC50 (Aβ1-40 monomer): > 5000 nM | IC50 (AβpE11-40 monomer): > 5000 nM | binding result (Aβ1-28 monomer): no binding (tested: 2500 nM) | binding result (Aβ3-28 monomer): no binding (tested: 2500 nM) | binding result (AβpE11-28 monomer): no binding (tested: 2500 nM) | binding result (Aβ2-28 monomer): no binding (tested: 2500 nM) | Kd (AβpE3-42 protofibrils [10]): 0.031 nM
